Laboratory results taken from PMC6891087 (2019).

Molecular target: unmodified nucleosome core particle (human | Xenopus laevis, UniProt P04908 1-130; P06899 1-126)
Experiment: SPR

B1: CPC_LM containing the Survivin BIR mutant K62/E65/H80A (complex)
chain 1: MAPRKGSSRVAKTNSLRRRKLASFLKDFDREVEIRIKQIESDRQNLLKEVDNLYNIEILRLPKALREMNWLDYFALGGNKQALEEAATADLDITEINKLTAEAIQTPLKSAKTRKVIQVDEMIVEEEEEEENERKNLQTARVKRCPPSKKRTQSIQGKGKGKRSSRANTVTPAVGRLEVSMVKPTPGLTPRFDSRVFKTPGLRTPAAGERIYNISGNGSPLADSKEIFLTVPVGGGESLRLLASDLQRHSIAQLDPEALGNIKKLSNRLAQICSSIRTHK
chain 2: MGAPTLPPAWQPFLKDHRISTFKNWPFLEGCACTPERMAEAGFIHCPTENEPDLAQCFFCFAELAGWEPDDDPIEEHKKASSGCAFLSVKKQFEELTLGEFLKLDRERAKNKIAKETNNKKKEFEETAKKVRRAIEQLAAMD
chain 3: MGTTAPGPIHLLELCDQKLMEFLCNMDNKDLVWLEEIQEEAERMFTREFSKEPELMPK
- Kd: 309 nM
